Source: the supplement of paper PMC9170038

Tested on: MS2 coat protein
Test: apparent KD of MS2 coat protein; designed switch direction (-1 OFF switch, 1 ON switch): 1; higher = weaker reporter binding
Method in brief: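 For each design, the apparent KD is the median over clusters of curves fitted to normalised cluster fluorescence. Clusters held RNA switches with common flanks, transcribed on Illumina chips by stalled E. coli RNA polymerase. These were titrated with SNAP-549-labelled MS2 coat protein, doubling from 0.7 or 1.5 nM to 3 µM, without input, with 200 uM small-molecule ligand, or with an oligonucleotide input.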

[1] = Eterna round: R95, input ligand: FMN 200 uM
[2] = Eterna round: R95, input ligand: microRNA oligo, concentration not stated
[3] = Eterna round: R95, input ligand: none
[4] = input ligand: microRNA oligo, concentration not stated

Sequence: AACAAUCUAUCUGAGGAUAUCAUGAAAAAAACAUGAGGAUCACCCAUGUGCAGGAAAACUGCAUAUGAGAAGGCAGAUAGAUUGU [salish99_SS2_r3_002] (puzzle: Same State 2)
- apparent KD of MS2 coat protein [1]: 28.9 nM
- apparent KD of MS2 coat protein [2]: 621 nM
- apparent KD of MS2 coat protein [3]: 769 nM

Sequence: GGGCCAGCCUGUGCUGGGCUUUAGCAUGCACAUGAGGAUCACCCAUGUCGUGUACAUGCUUUUUGCUCGUCUUUAAA [Photon Torp-08] (puzzle: Sensor for hsa-mir-208a)
- apparent KD of MS2 coat protein [1]: 80.2 nM
- apparent KD of MS2 coat protein [2]: 17.4 nM
- apparent KD of MS2 coat protein [3]: 84.1 nM

Sequence: AUGCUCGUGUGAGGAUAUGCCGCCGUUUCGGCUGCAGAAGGUGCUACGUUACAUGAGGAUCACCCAUGUCUCUGUUGUUUCGUG [salish99_SSNG1_r04_942] (Eterna round: R96, puzzle: Same State NG 1)
- apparent KD of MS2 coat protein [4]: 18.7 nM

Sequence: GCUUCACAUGAGGAUCACCCAUGUCUUCGGAGUCGAGGAUAUGGUCACUGUAAACAGUGGCCAGAAGGCGAGGAGC [SS1 - Son of Teenbexe v7] (puzzle: Same State 1)
- apparent KD of MS2 coat protein [2]: 46.4 nM

Sequence: CAUCGUUUGAUAGGAUAUCGCUAUACAUGAGGAUCACCCAUGUUUACCACGCUGGUUUUUCAUACCGAGAAGGAUUCUGAUGUU [salish99_SSNG02_r04_015] (Eterna round: R96, puzzle: Same State NG 2)
- apparent KD of MS2 coat protein (input ligand: FMN 200 uM): 36 nM
- apparent KD of MS2 coat protein [4]: 25.2 nM
- apparent KD of MS2 coat protein (input ligand: none): 38.6 nM

Sequence: AGUAUUAAUGCAGGAUAUGAUUAACAUGAGGAUCACCCAUGUGGUGUUGUGAGUAAGGAGAGUGAUCAGAAGGGCAUUUUUUUU [JMF's solution 38] (Eterna round: R96, puzzle: Same State NG 2)
- apparent KD of MS2 coat protein (input ligand: FMN 200 uM): 414 nM
- apparent KD of MS2 coat protein [4]: 175 nM
- apparent KD of MS2 coat protein (input ligand: none): 502 nM

Sequence: CGUCGUUUGAUAGGAUAUCGCUUUACAUGAGGAUCGCCCAUGUUUACCACGCUGGUUUUUCUUUCCGAGAAGGAUUCUGAUGUU [salish99_SSNG02_r04_027] (Eterna round: R96, puzzle: Same State NG 2)
- apparent KD of MS2 coat protein (input ligand: FMN 200 uM): 28.4 nM
- apparent KD of MS2 coat protein [4]: 10.5 nM
- apparent KD of MS2 coat protein (input ligand: none): 4.85 nM

Sequence: GGGAAGAGGGACAAGGAUAUGUCAAAAGAGACAUGAGGAUCACCCAUGUGGAGGUUGGAGCAGAGACAGAAGGUGUACGGAGAGA [JR_SS2_Sub009] (puzzle: Same State 2)
- apparent KD of MS2 coat protein [1]: 69.7 nM
- apparent KD of MS2 coat protein [2]: 63 nM
- apparent KD of MS2 coat protein [3]: 152 nM

Sequence: UGUUGUAUUACAGGAUAUCUAUGAUUUUUAUUUAGAGAAGGGUAUUCACAUGAGGAUCACCCAUGUAUAUACGAGGAAGUUGUG [JMF's solution 11] (Eterna round: R96, puzzle: Same State NG 1)
- apparent KD of MS2 coat protein [4]: 36.8 nM

Sequence: UAGUGAUUGCAAGGAUAUGCUUAUGUUUAAUUUUUUUUAAUAUCUAACAUGAGGAUCACCCAUGUGCAGAAGGUGCUUGAUUUG [JR_SSNG2_Sub075] (Eterna round: R96, puzzle: Same State NG 2)
- apparent KD of MS2 coat protein [4]: 54.2 nM

Sequence: UGGCUCAGACGAGGAUAUAUGUGGUCACAUGAGGAUCACCCAUGUCUCGAGCUUCGGCUCGAGGCAUAGAAGGCGUCUGAGCCU [SSNG2/5-A3] (Eterna round: R96, puzzle: Same State NG 2)
- apparent KD of MS2 coat protein (input ligand: FMN 200 uM): 200 nM
- apparent KD of MS2 coat protein [4]: 7.4 nM
- apparent KD of MS2 coat protein (input ligand: none): 148 nM

Sequence: GUUUUUAGUGCAGGAUAUGAUCAACAUGAGGAUCACCCAUGUGGCGUUGUGAGUAGGGAGAGAGAUCAGAAGGGCGUCUCCGCG [SS-NG2-LRO13] (Eterna round: R96, puzzle: Same State NG 2)
- apparent KD of MS2 coat protein (input ligand: FMN 200 uM): 51.5 nM
- apparent KD of MS2 coat protein [4]: 37 nM
- apparent KD of MS2 coat protein (input ligand: none): 57.3 nM

Sequence: GUGGUCAGACAUGAGGAUCACCCAUGUGGAAUAAAUAACACACAGGAUAUGGAAUAUAAAAUAUACCAGAAGGGUGGAUUGGUG (Eterna round: R96, puzzle: Same State NG 3)
- apparent KD of MS2 coat protein (input ligand: FMN 200 uM): 157 nM
- apparent KD of MS2 coat protein [4]: 226 nM
- apparent KD of MS2 coat protein (input ligand: none): 326 nM

Sequence: CAGCGCUGUCGAGAGGAUAUGCGGUGAUGGACAUGAGGAUCACCCAUGUUAGCGAUAGUAUUACGGUAGAAGGCUCUACAGCUGC [Soteed - 11] (puzzle: Same State 2)
- apparent KD of MS2 coat protein [2]: 43.6 nM

Sequence: CCCAUGAAUAGUCAGGAUAUACGAUUUUAUACAUGAGGAUCACCCAUGUUAAGACUCCUCAAUAAGUAGAAGGGACUAUUUAUAA [Tesla Same State 2] (puzzle: Same State 2)
- apparent KD of MS2 coat protein [1]: 154 nM
- apparent KD of MS2 coat protein [2]: 144 nM
- apparent KD of MS2 coat protein [3]: 103 nM

Sequence: UGGCUCAGAGCAGGAUAUAUGUGGUCACAUGAGGAUCACCCAUGUCUCGAGCUUCGGCUCGAGGCAUAGAAGGGCUCUGAGCCU [SSNG2/5-B3] (Eterna round: R96, puzzle: Same State NG 2)
- apparent KD of MS2 coat protein (input ligand: FMN 200 uM): 704 nM
- apparent KD of MS2 coat protein [4]: 21.4 nM
- apparent KD of MS2 coat protein (input ligand: none): 85.9 nM

Sequence: ACCCGCGACGGAGGAUAUGGGCACUCGGCGAAAUAAACCGCCAUAACAUGAGGAUCACCCAUGUCCCAGAAGGCCGCCGCAAAC [Leatve] (Eterna round: R96, puzzle: Same State NG 2)
- apparent KD of MS2 coat protein (input ligand: FMN 200 uM): 92.3 nM
- apparent KD of MS2 coat protein [4]: 255 nM
- apparent KD of MS2 coat protein (input ligand: none): 505 nM

Sequence: GCUCGUAUGAUGACCGACAUGAGGAUCACCCAUGUAUGUUGGUAGGAUAUCUAUAUUAAGGAUAUAGAGAAGGGCCGAACGAGC [SameState NG3 #15] (Eterna round: R96, puzzle: Same State NG 3)
- apparent KD of MS2 coat protein (input ligand: FMN 200 uM): 26.5 nM
- apparent KD of MS2 coat protein [4]: 33.6 nM
- apparent KD of MS2 coat protein (input ligand: none): 40.1 nM

Sequence: UGUUGUAUUACAGGAUAUCUAUUAGUUUGAUUUAGAGAAGGGUAUUCACAUGAGGAUCACCCAUGUAUAUACGAGGAAGUUGUG [JMF's solution 94] (Eterna round: R96, puzzle: Same State NG 1)
- apparent KD of MS2 coat protein [4]: 41.4 nM

Sequence: CCUGCAAUUAACGCCUACAUGAGGAUCACCCAUGUAUGUAGGCAGGAUAUCGUUUGCUUUGCAAACGAGAAGGGCUGUAGUAGC [salish99_SSNG3_R04_002] (Eterna round: R96, puzzle: Same State NG 3)
- apparent KD of MS2 coat protein (input ligand: FMN 200 uM): 18.7 nM
- apparent KD of MS2 coat protein [4]: 15.4 nM
- apparent KD of MS2 coat protein (input ligand: none): 18.9 nM

Sequence: UAAACUUCUUUUAGUGUGUUGCGAGUGAAACAUGAGGAUCACCCAUGUAAAGGAUUGUGGUAUUUUGUUCGUCUUAA [JR_SHM208A_Sub075] (puzzle: Sensor for hsa-mir-208a)
- apparent KD of MS2 coat protein [1]: 75.2 nM
- apparent KD of MS2 coat protein [2]: 41.4 nM
- apparent KD of MS2 coat protein [3]: 98.8 nM

Sequence: AGUCCAGCCUGAGCUGGACAAAAGCAUGUACAUGAGGAUCACCCAUGUUAUGUACAAGCUUUUUGCUCGUUUUAAUA [Zipper 49 - 15] (puzzle: Sensor for hsa-mir-208a)
- apparent KD of MS2 coat protein [1]: 191 nM
- apparent KD of MS2 coat protein [2]: 13.1 nM
- apparent KD of MS2 coat protein [3]: 199 nM

Sequence: UUGAUGUACUGAGGAUAUCGUGUCGUCUGUUUUUACAUGAGGAUCACCCAUGUGGGUUGUGGUAUCGAGAAGGCAGUUUUCUUA [JR_SSNG2_Sub030] (Eterna round: R96, puzzle: Same State NG 2)
- apparent KD of MS2 coat protein (input ligand: FMN 200 uM): 306 nM
- apparent KD of MS2 coat protein [4]: 560 nM
- apparent KD of MS2 coat protein (input ligand: none): 582 nM

Sequence: GUAGCAUACCGAGGAUAUUCAUUACAUGAGGAUCACCCAUGUUUAAAUAAUAGGCGAAAGCCUUGGGAGAAGGCGGAAUGCUAC [Xeonanis - 20 Mod71] (Eterna round: R96, puzzle: Same State NG 2)
- apparent KD of MS2 coat protein (input ligand: FMN 200 uM): 10.9 nM
- apparent KD of MS2 coat protein [4]: 10.1 nM
- apparent KD of MS2 coat protein (input ligand: none): 14 nM
